Data on 1 molecule can be found in paper PMC10598736, “Structural insights into Rad18 targeting by the SLF1 BRCT domains” (The Journal of Biological Chemistry, 2023).

The target of assay [1] is T1, full-length Rad18 S442E, strep-his-sumo-tagged (human, UniProt Q9NS91 1-495, S442E).
T1 construct: Rad18, human, with the phosphomimetic S442E; also called S442E-substituted Rad18; source: E. coli BL21 Rosetta (DE3), purified (same protocol as the wild type); not shown: Strep, N-terminal, kept; His, N-terminal, kept; SUMO, N-terminal, kept
T1 sequence (Q9NS91 whole entry S442E): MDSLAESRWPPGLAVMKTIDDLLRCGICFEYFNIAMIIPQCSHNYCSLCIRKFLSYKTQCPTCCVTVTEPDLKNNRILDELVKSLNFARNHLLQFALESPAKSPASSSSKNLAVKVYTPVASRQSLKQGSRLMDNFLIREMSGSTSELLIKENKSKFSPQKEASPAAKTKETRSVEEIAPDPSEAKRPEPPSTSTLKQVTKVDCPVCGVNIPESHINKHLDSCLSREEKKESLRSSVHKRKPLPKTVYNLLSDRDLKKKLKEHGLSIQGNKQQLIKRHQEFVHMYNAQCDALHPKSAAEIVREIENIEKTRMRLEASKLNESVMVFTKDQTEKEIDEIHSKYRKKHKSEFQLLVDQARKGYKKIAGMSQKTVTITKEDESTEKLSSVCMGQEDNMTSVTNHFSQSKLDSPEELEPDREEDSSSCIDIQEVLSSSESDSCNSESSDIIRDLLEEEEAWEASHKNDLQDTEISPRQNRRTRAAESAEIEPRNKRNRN
The experiment in a line: pull-down; his-strep-sumo-tagged Rad18 (50 μg) held on streptactin beads, incubated with 50 μg SLF1^tBRCT at 4 °C for 60 min; 20 mM Tris (pH 7.5), 200 mM sodium chloride, 2 mM DTT; eluted with D-desthiobiotin, SDS PAGE. Conditions: both partners purified.

For assay [2], the target named is T2, full-length Rad18 S442E/S444E (2SE), strep-his-sumo-tagged (human, UniProt Q9NS91 1-495, S442E | S444E).
T2 construct: Rad18, human, with the phosphomimetics S442E/S444E; also called S442E/S444E (2SE)-substituted Rad18; source: E. coli BL21 Rosetta (DE3), purified (same protocol as the wild type); not shown: Strep, N-terminal, kept; His, N-terminal, kept; SUMO, N-terminal, kept
T2 sequence (Q9NS91 whole entry S442E/S444E): as the sequence (Q9NS91 whole entry S442E) above, with S444E counted along it
Described as above. Conditions: both partners purified.

B1: SLF1 tandem BRCT repeat (SLF1^tBRCT), residues 1-199, wild type (domain or fragment, UniProt Q9BQI6 1-199, looked up)
chain: MEDGTPKHIIQMTGFKMEEKEALVKLLLKLDCTFIKSEKYKNCTHLIAERLCKSEKFLAACAAGKWILTKDYIIHSAKSGRWLDETTYEWGYKIEKDSRYSPQMQSAPKRWREELKRTGAPGAFHRWKVVLLVRTDKRSDSLIRVLEAGKANVILPKSSPSGITHVIASNARIKAEKEKDNFKAPFYPIQYLGDFLLEK
notes: SMC5/6 localization factor 1 (SLF1), tandem BRCT repeat at the N-terminus, residues 1-199; coding region optimized for E. coli and synthesized; also called WT; SMC5/6 localization factor 1 tBRCT; source: E. coli BL21 Rosetta (DE3), purified (Ni-NTA, heparin, gel filtration)
For B1, the binding result in assay [1] and in assay [2] was “binds” throughout.
